Source: US20260242419A1, “A CYCLIC PEPTIDE FOR TRAPPING INTERLEUKIN-1 BETA” (Merck Sharp & Dohme LLC, priority 2023, published 2026)
Starred links: 1 amine or outer side, 2 acyl side, 3 side chain; linkers in the order of their positions; H or OH if unused. Non-standard residues stand in square brackets, D forms with d. 3Pal4Ph4CO2H = 4-[5-[(2S)-2-amino-2-carboxy-ethyl]-2-pyridyl]benzoic acid, O=C([C@H](Cc1ccc(-c2ccc(C(=O)[*:3])cc2)nc1)N[*:1])[*:2]; dProc3CH2Pyrim = (2R,3S)-3-(pyrimidin-5-ylmethyl)pyrrolidine-2-carboxylic acid, O=C([C@H]1[C@@H](Cc2cncnc2)CCN1[*:1])[*:2]; TyrEtNAc = (2S)-3-[4-(2-acetamidoethoxy)phenyl]-2-amino-propanoic acid, CC(=O)NCCOc1ccc(C[C@H](N[*:1])C(=O)[*:2])cc1; dProc3Bn = (2R,3S)-3-benzylpyrrolidine-2-carboxylic acid, O=C([C@H]1[C@@H](Cc2ccccc2)CCN1[*:1])[*:2]; dProc4Bn = (2R,4R)-4-benzylpyrrolidine-2-carboxylic acid, O=C([C@H]1C[C@@H](Cc2ccccc2)CN1[*:1])[*:2]; Trp(βS-Me,4-F) = C[C@@H](c1c[nH]c2cccc(F)c12)[C@H](N)C(=O)O; Bip(4'-COOH) = N[C@@H](Cc1ccc(-c2ccc(C(=O)O)cc2)cc1)C(=O)O; Ala(1-bicyclo(1.1.1)pentyl) = N[C@@H](CC12CC(C1)C2)C(=O)O; dPro(4R-Bzl(4-F)) = O=C(O)[C@H]1C[C@@H](Cc2ccc(F)cc2)CN1; Ala(morpholin-4-yl) = N[C@@H](CN1CCOCC1)C(=O)O; Ala(pyrimidin-5-yl) = N[C@@H](Cc1cncnc1)C(=O)O; Phe(4-COOH) = N[C@@H](Cc1ccc(C(=O)O)cc1)C(=O)O; Pro(cis-4-F) = O=C(O)[C@@H]1C[C@H](F)CN1; 3Pal = N[C@@H](Cc1cccnc1)C(=O)O; 4Pal = N[C@@H](Cc1ccncc1)C(=O)O; d(αMeS) = C[C@@](N)(CO)C(=O)O; Dab = NCC[C@H](N)C(=O)O; Aib = CC(C)(N)C(=O)O

These binders were tested against Recombinant human IL-1β (BioLegend 579404) (human, UniProt P01584 117-269) (assay: cell-based or functional assay).

| MRC5 IC50 | Binder |
| --- | --- |
| 0.024 nM | cyclo([Bip(4'-COOH)][4Pal][Phe(4-COOH)]G[Pro(cis-4-F)][Trp(βS-Me,4-F)][Aib]EW[Aib][Ala(pyrimidin-5-yl)]Q[Dab]G[dProc4Bn]) (SMILES C[C@@H](c1c[nH]c2cccc(F)c12)[C@@H]1NC(=O)[C@@H]2C[C@H](F)CN2C(=O)CNC(=O)[C@H](Cc2ccc(C(=O)O)cc2)NC(=O)[C@H](Cc2ccncc2)NC(=O)[C@H](Cc2ccc(-c3ccc(C(=O)O)cc3)cc2)NC(=O)[C@H]2C[C@@H](Cc3ccccc3)CN2C(=O)CNC(=O)[C@H](CCN)NC(=O)[C@H](CCC(N)=O)NC(=O)[C@H](Cc2cncnc2)NC(=O)C(C)(C)NC(=O)[C@H](Cc2c[nH]c3ccccc23)NC(=O)[C@H](CCC(=O)O)NC(=O)C(C)(C)NC1=O) [SEQ ID NO: 31] |
| 0.035 nM | cyclo([3Pal4Ph4CO2H][4Pal][Phe(4-COOH)]G[Pro(cis-4-F)][Trp(βS-Me,4-F)][Aib]EW[Aib][Ala(pyrimidin-5-yl)]Q[Dab]G[dPro(4R-Bzl(4-F))]) (SMILES C[C@@H](c1c[nH]c2cccc(F)c12)[C@@H]1NC(=O)[C@@H]2C[C@H](F)CN2C(=O)CNC(=O)[C@H](Cc2ccc(C(=O)O)cc2)NC(=O)[C@H](Cc2ccncc2)NC(=O)[C@H](Cc2ccc(-c3ccc(C(=O)O)cc3)nc2)NC(=O)[C@H]2C[C@@H](Cc3ccc(F)cc3)CN2C(=O)CNC(=O)[C@H](CCN)NC(=O)[C@H](CCC(N)=O)NC(=O)[C@H](Cc2cncnc2)NC(=O)C(C)(C)NC(=O)[C@H](Cc2c[nH]c3ccccc23)NC(=O)[C@H](CCC(=O)O)NC(=O)C(C)(C)NC1=O) [SEQ ID NO: 26] |
| 0.023 nM | cyclo([Bip(4'-COOH)][4Pal][Phe(4-COOH)]G[Pro(cis-4-F)][Trp(βS-Me,4-F)][Aib]EW[Aib][Ala(pyrimidin-5-yl)]QSG[dProc3Bn]) (SMILES C[C@@H](c1c[nH]c2cccc(F)c12)[C@@H]1NC(=O)[C@@H]2C[C@H](F)CN2C(=O)CNC(=O)[C@H](Cc2ccc(C(=O)O)cc2)NC(=O)[C@H](Cc2ccncc2)NC(=O)[C@H](Cc2ccc(-c3ccc(C(=O)O)cc3)cc2)NC(=O)[C@H]2[C@@H](Cc3ccccc3)CCN2C(=O)CNC(=O)[C@H](CO)NC(=O)[C@H](CCC(N)=O)NC(=O)[C@H](Cc2cncnc2)NC(=O)C(C)(C)NC(=O)[C@H](Cc2c[nH]c3ccccc23)NC(=O)[C@H](CCC(=O)O)NC(=O)C(C)(C)NC1=O) [SEQ ID NO: 28] |
| 0.018 nM | cyclo([Bip(4'-COOH)][4Pal][Phe(4-COOH)]G[Pro(cis-4-F)][Trp(βS-Me,4-F)][Aib]EW[d(αMeS)][Ala(pyrimidin-5-yl)]Q[Dab]G[dPro(4R-Bzl(4-F))]) (SMILES C[C@@H](c1c[nH]c2cccc(F)c12)[C@@H]1NC(=O)[C@@H]2C[C@H](F)CN2C(=O)CNC(=O)[C@H](Cc2ccc(C(=O)O)cc2)NC(=O)[C@H](Cc2ccncc2)NC(=O)[C@H](Cc2ccc(-c3ccc(C(=O)O)cc3)cc2)NC(=O)[C@H]2C[C@@H](Cc3ccc(F)cc3)CN2C(=O)CNC(=O)[C@H](CCN)NC(=O)[C@H](CCC(N)=O)NC(=O)[C@H](Cc2cncnc2)NC(=O)[C@@](C)(CO)NC(=O)[C@H](Cc2c[nH]c3ccccc23)NC(=O)[C@H](CCC(=O)O)NC(=O)C(C)(C)NC1=O) [SEQ ID NO: 23] |
| 0.098 nM | cyclo([Bip(4'-COOH)][4Pal][Phe(4-COOH)]G[Pro(cis-4-F)][Trp(βS-Me,4-F)][Aib]EW[Aib]FQSG[dProc3CH2Pyrim]) (SMILES C[C@@H](c1c[nH]c2cccc(F)c12)[C@@H]1NC(=O)[C@@H]2C[C@H](F)CN2C(=O)CNC(=O)[C@H](Cc2ccc(C(=O)O)cc2)NC(=O)[C@H](Cc2ccncc2)NC(=O)[C@H](Cc2ccc(-c3ccc(C(=O)O)cc3)cc2)NC(=O)[C@H]2[C@@H](Cc3cncnc3)CCN2C(=O)CNC(=O)[C@H](CO)NC(=O)[C@H](CCC(N)=O)NC(=O)[C@H](Cc2ccccc2)NC(=O)C(C)(C)NC(=O)[C@H](Cc2c[nH]c3ccccc23)NC(=O)[C@H](CCC(=O)O)NC(=O)C(C)(C)NC1=O) [SEQ ID NO: 27] |
| 0.053 nM | cyclo([TyrEtNAc][Ala(1-bicyclo(1.1.1)pentyl)][Phe(4-COOH)]G[Pro(cis-4-F)][Trp(βS-Me,4-F)][Aib]EW[Aib][Ala(pyrimidin-5-yl)]Q[Dab]G[dPro(4R-Bzl(4-F))]) (SMILES CC(=O)NCCOc1ccc(C[C@@H]2NC(=O)[C@H]3C[C@@H](Cc4ccc(F)cc4)CN3C(=O)CNC(=O)[C@H](CCN)NC(=O)[C@H](CCC(N)=O)NC(=O)[C@H](Cc3cncnc3)NC(=O)C(C)(C)NC(=O)[C@H](Cc3c[nH]c4ccccc34)NC(=O)[C@H](CCC(=O)O)NC(=O)C(C)(C)NC(=O)[C@H]([C@@H](C)c3c[nH]c4cccc(F)c34)NC(=O)[C@@H]3C[C@H](F)CN3C(=O)CNC(=O)[C@H](Cc3ccc(C(=O)O)cc3)NC(=O)[C@H](CC34CC(C3)C4)NC2=O)cc1) [SEQ ID NO: 25] |
| 0.049 nM | cyclo([Bip(4'-COOH)][4Pal][Phe(4-COOH)]G[Pro(cis-4-F)][Trp(βS-Me,4-F)][Aib]EW[Aib]RQSG[dPro(4R-Bzl(4-F))]) (SMILES C[C@@H](c1c[nH]c2cccc(F)c12)[C@@H]1NC(=O)[C@@H]2C[C@H](F)CN2C(=O)CNC(=O)[C@H](Cc2ccc(C(=O)O)cc2)NC(=O)[C@H](Cc2ccncc2)NC(=O)[C@H](Cc2ccc(-c3ccc(C(=O)O)cc3)cc2)NC(=O)[C@H]2C[C@@H](Cc3ccc(F)cc3)CN2C(=O)CNC(=O)[C@H](CO)NC(=O)[C@H](CCC(N)=O)NC(=O)[C@H](CCCNC(=N)N)NC(=O)C(C)(C)NC(=O)[C@H](Cc2c[nH]c3ccccc23)NC(=O)[C@H](CCC(=O)O)NC(=O)C(C)(C)NC1=O) [SEQ ID NO: 32] |
| 0.019 nM | cyclo([Bip(4'-COOH)][4Pal][Phe(4-COOH)]G[Pro(cis-4-F)][Trp(βS-Me,4-F)][Aib]EW[Aib][Ala(pyrimidin-5-yl)]Q[Dab]G[dProc3Bn]) [SEQ ID NO: 29] |
| 0.026 nM | cyclo([Bip(4'-COOH)][4Pal][Phe(4-COOH)]G[Pro(cis-4-F)][Trp(βS-Me,4-F)][Aib]EW[Aib][Ala(pyrimidin-5-yl)]QSG[dProc4Bn]) (SMILES C[C@@H](c1c[nH]c2cccc(F)c12)[C@@H]1NC(=O)[C@@H]2C[C@H](F)CN2C(=O)CNC(=O)[C@H](Cc2ccc(C(=O)O)cc2)NC(=O)[C@H](Cc2ccncc2)NC(=O)[C@H](Cc2ccc(-c3ccc(C(=O)O)cc3)cc2)NC(=O)[C@H]2C[C@@H](Cc3ccccc3)CN2C(=O)CNC(=O)[C@H](CO)NC(=O)[C@H](CCC(N)=O)NC(=O)[C@H](Cc2cncnc2)NC(=O)C(C)(C)NC(=O)[C@H](Cc2c[nH]c3ccccc23)NC(=O)[C@H](CCC(=O)O)NC(=O)C(C)(C)NC1=O) [SEQ ID NO: 30] |
| 0.033 nM | cyclo([Bip(4'-COOH)][4Pal][Phe(4-COOH)]G[Pro(cis-4-F)][Trp(βS-Me,4-F)][Aib]EW[Aib]RQ[Dab]G[dPro(4R-Bzl(4-F))]) (SMILES C[C@@H](c1c[nH]c2cccc(F)c12)[C@@H]1NC(=O)[C@@H]2C[C@H](F)CN2C(=O)CNC(=O)[C@H](Cc2ccc(C(=O)O)cc2)NC(=O)[C@H](Cc2ccncc2)NC(=O)[C@H](Cc2ccc(-c3ccc(C(=O)O)cc3)cc2)NC(=O)[C@H]2C[C@@H](Cc3ccc(F)cc3)CN2C(=O)CNC(=O)[C@H](CCN)NC(=O)[C@H](CCC(N)=O)NC(=O)[C@H](CCCNC(=N)N)NC(=O)C(C)(C)NC(=O)[C@H](Cc2c[nH]c3ccccc23)NC(=O)[C@H](CCC(=O)O)NC(=O)C(C)(C)NC1=O) [SEQ ID NO: 33] |
| 0.032 nM | cyclo([Bip(4'-COOH)][4Pal][Phe(4-COOH)]G[Pro(cis-4-F)][Trp(βS-Me,4-F)][Aib]EW[Aib][3Pal]QSG[dPro(4R-Bzl(4-F))]) (SMILES C[C@@H](c1c[nH]c2cccc(F)c12)[C@@H]1NC(=O)[C@@H]2C[C@H](F)CN2C(=O)CNC(=O)[C@H](Cc2ccc(C(=O)O)cc2)NC(=O)[C@H](Cc2ccncc2)NC(=O)[C@H](Cc2ccc(-c3ccc(C(=O)O)cc3)cc2)NC(=O)[C@H]2C[C@@H](Cc3ccc(F)cc3)CN2C(=O)CNC(=O)[C@H](CO)NC(=O)[C@H](CCC(N)=O)NC(=O)[C@H](Cc2cccnc2)NC(=O)C(C)(C)NC(=O)[C@H](Cc2c[nH]c3ccccc23)NC(=O)[C@H](CCC(=O)O)NC(=O)C(C)(C)NC1=O) [SEQ ID NO: 34] |
| 0.037 nM | cyclo([Bip(4'-COOH)][4Pal][Phe(4-COOH)]G[Pro(cis-4-F)][Trp(βS-Me,4-F)][Aib]EW[Aib][Ala(pyrimidin-5-yl)]QSG[dPro(4R-Bzl(4-F))]) (SMILES C[C@@H](c1c[nH]c2cccc(F)c12)[C@@H]1NC(=O)[C@@H]2C[C@H](F)CN2C(=O)CNC(=O)[C@H](Cc2ccc(C(=O)O)cc2)NC(=O)[C@H](Cc2ccncc2)NC(=O)[C@H](Cc2ccc(-c3ccc(C(=O)O)cc3)cc2)NC(=O)[C@H]2C[C@@H](Cc3ccc(F)cc3)CN2C(=O)CNC(=O)[C@H](CO)NC(=O)[C@H](CCC(N)=O)NC(=O)[C@H](Cc2cncnc2)NC(=O)C(C)(C)NC(=O)[C@H](Cc2c[nH]c3ccccc23)NC(=O)[C@H](CCC(=O)O)NC(=O)C(C)(C)NC1=O) [SEQ ID NO: 3] |
| 0.049 nM | cyclo([Bip(4'-COOH)][4Pal][Phe(4-COOH)]G[Pro(cis-4-F)][Trp(βS-Me,4-F)][Aib]EW[Aib][Ala(pyrimidin-5-yl)]Q[Ala(morpholin-4-yl)]G[dPro(4R-Bzl(4-F))]) (SMILES C[C@@H](c1c[nH]c2cccc(F)c12)[C@@H]1NC(=O)[C@@H]2C[C@H](F)CN2C(=O)CNC(=O)[C@H](Cc2ccc(C(=O)O)cc2)NC(=O)[C@H](Cc2ccncc2)NC(=O)[C@H](Cc2ccc(-c3ccc(C(=O)O)cc3)cc2)NC(=O)[C@H]2C[C@@H](Cc3ccc(F)cc3)CN2C(=O)CNC(=O)[C@H](CN2CCOCC2)NC(=O)[C@H](CCC(N)=O)NC(=O)[C@H](Cc2cncnc2)NC(=O)C(C)(C)NC(=O)[C@H](Cc2c[nH]c3ccccc23)NC(=O)[C@H](CCC(=O)O)NC(=O)C(C)(C)NC1=O) [SEQ ID NO: 24] |
